# According to US20180291082A1 (IMMATICS BIOTECHNOLOGIES, published 2018):
# Target: T1, human recombinant HLA-B*08:01 (human)
# T1 construct: Expressed in E. coli and purified; Assay done by ImmunAware
# Test: pMHC dissociation at 37 C (b2m on heavy chain); mean half-life grade (+ >2 h, ++ >4 h, +++ >6 h, ++++ >10 h)
# Procedure: The peptide-MHC stability for HLA-B*08:01 peptides was performed by ImmunAware (Copenhagen, Denmark). The data were obtained using a proximity based, homogenous, real-time assay to measure the dissociation of peptides from HLA class I molecules. First human recombinant HLA-B*08:01 and b2m were expressed in E. coli and purified in a series of liquid chromatography based steps (Ferre et al., 2003; Ostergaard et al., 2001). Afterwards, the stability of a peptide-MHC complex (pMHC) can be determined by measuring the amount of b2m associated with the MHC heavy chain over time at 37° C. (Harndahl et al., 2012). The stability of each pMHC, expressed as the half life of b2m associated with the respective heavy chain, was calculated by fitting the data to a one-phase dissociation equation.
row,Binder,mean half-life (T1/2) of peptide-MHC complex [h]
1,AAMSRYEL,4 to 6
2,DLKYNALDL,6 to 10
3,HAKEKLTAL,6 to 10
4,LLKAEPLAF,4 to 6
5,YKKLRTSSF,4 to 6
6,LPFLRENDL,4 to 6
7,FQKLKLLSL,2 to 4
8,EPVKKSRL,6 to 10
9,NPNLKTLL,4 to 6
10,YVKERSKAM,6 to 10

# Target: T2, HLA-A*02:01 (human)
# T2 construct: Peptide-receptive MHC monomer made by UV cleavage of a UV-sensitive peptide
# Test: UV-ligand exchange, anti-b2m ELISA; exchange yield grade (+ >10%, ++ >20%, +++ >50, ++++ >75%)
# How it was run: (§1)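 Exchange yield assessed by anti-β2m ELISA of UV-exchanged peptide-MHC monomers; absorbance at 450 nm compared with monomer standard curve.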
row,Binder,peptide exchange yield [%]
1,VMLNSNVLL,> 75
2,YLLPSVVLL,> 75
3,KIDDIWNLEV,50 to 75
4,SLQDTKITL,50 to 75
5,KMMALVAEL,> 75
6,GLMTIVTSL,> 75
7,SQTGFVVLV,20 to 50
8,KLLDEVTYL,50 to 75
9,VLITGLPLI,> 75
10,YQDSWFQQL,50 to 75
11,ELMPRVYTL,50 to 75
12,ALAAELNQL,50 to 75
13,YVSSGEMMV,50 to 75
14,LLMTSLTES,50 to 75
15,YLPPTDPRMSV,> 75
16,RLWQIQHHL,50 to 75
17,FLNQIYTQL,> 75
18,GLTGVIMTI,> 75
19,KLHEIYIQA,> 75
20,GLPDFVKEL,> 75
21,RLFGLFLNNV,> 75
22,ALFPERITV,> 75
23,KMILKMVQL,10 to 20
24,RLASRPLLL,50 to 75

# Target: T3, HLA-B*07:02 (human)
# T3 construct: Peptide-receptive MHC monomer made by UV cleavage of a UV-sensitive peptide
# Test: as above
# How it was run: as §1
row,Binder,peptide exchange yield [%]
1,LPDGSRVEL,20 to 50
2,LPALPQQLI,50 to 75
3,SPLRGGSSL,20 to 50
4,APSGTRVVQVL,20 to 50
5,RPAVGHSGL,20 to 50

# Target: T4, HLA-A*24:02 (human)
# T4 construct: Peptide-receptive MHC monomer made by UV cleavage of a UV-sensitive peptide
# Test: as above
# How it was run: as §1
row,Binder,peptide exchange yield [%]
1,VWAKILSAF,50 to 75
2,KFLDSNIKF,50 to 75
3,YFEEAANFL,20 to 50
4,LVLDYSKDYNHW,10 to 20
5,NFLPPIIARF,> 75
6,TYISKTIAL,50 to 75
7,MYAKEFDLL,50 to 75
8,SYIEKVRFL,50 to 75
9,KLYGMPTDFGF,20 to 50
10,RQYLAINQI,10 to 20
11,IYGPKYIHPSF,> 75
12,TFQDKTLNF,50 to 75
13,IFINLSPEF,> 75
14,SYTKVEARL,50 to 75
15,VFLNQIYTQL,20 to 50
16,VYGDGHYLTF,50 to 75
17,SFDSNLLSF,10 to 20
18,TYLTGRQF,20 to 50
19,VIAPIISNF,50 to 75
20,EYNNIQHLF,50 to 75
21,KYLSLSNSF,> 75
22,KYLSIPTVF,> 75
23,KYLSIPAVF,> 75
24,PYASLASELF,> 75
25,KYLSIPAVFF,> 75
